Measured values as given in PMC3502708 (Journal of molecular biology, 2012).
Blank lines part the entries; values can stand above or below the binder they belong to. Where no end group is shown, it is not given here. Me3 = trimethyl (trimethylated lysine)

Columns and labels:
[1] = molecular target: T1, MORF PHD1/2 fingers (aa 211-329) (human, UniProt Q8WYB5-3 211-329); experiment: NMR titration
T1 sequence (looked up): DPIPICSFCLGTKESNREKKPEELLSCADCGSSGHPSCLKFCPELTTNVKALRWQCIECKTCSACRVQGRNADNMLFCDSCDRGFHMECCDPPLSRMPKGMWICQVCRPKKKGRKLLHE

[2] = molecular target: T1, MORF PHD1/2 fingers (aa 211-329); experiment: other fluorescence titration
[3] = molecular target: MOZ PHD1/2 fingers (aa 207-318) (human, UniProt Q92794 207-318); experiment: other fluorescence titration
Chain of MOZ PHD1/2 fingers (aa 207-318) (Q92794 207-318): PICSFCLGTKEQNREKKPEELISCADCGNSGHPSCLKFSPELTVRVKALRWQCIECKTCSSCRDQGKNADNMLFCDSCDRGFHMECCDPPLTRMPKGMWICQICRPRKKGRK

fold stronger than H3K4me3 [1]: ~4 fold
Binder: ARTK(Me3)QTARK(Ac)STG [histone H3 peptide trimethylated at Lys4 and acetylated at Lys9]

Kd [2]: 1.4 µM
Kd [3]: 1.5 µM
Binder: ARTKQTARKSTG (acetyl-lysine at 9) [histone H3 peptide acetylated at Lys9 (length not stated for the experiment)]

binding result [1]: binds
Binder: ARTKQTARKSTG (peptide, UniProt P68431 2-13, looked up) [unmodified histone H3 peptide, amino acids 1-12]

Kd [1]: ~2000 µM
Binder: ARTK(Me3)QTARKSTG [histone H3 peptide trimethylated at Lys4]

binding result [1]: binds
Binder: ARTKQTARKSTG (peptide, UniProt P68431 2-13, looked up, acetyl-lysine at 9) [histone H3 peptide acetylated at Lys9, amino acids 1-12]
